Target: SUFU (UniProt Q9UMX1)
Experiment: co-immunoprecipitation, immunoblot
Settings: reference: wild-type GLI2, CCL21; sites S149

binding against the reference: stronger
Substance: GLI2 (from UniProt P10070) GLI2 S149A, CCL21

From PMC4266991
